Assay [1] has as its target PfHsp70-1-PfHop association (Plasmodium falciparum, UniProt Q8IB24+Q8ILC1). The assay is described as follows: ELISA for the direct association of PfHsp70-1 and PfHop. The assay is classed as biochemical. Conditions: for Effect on association of PfHsp70-1 and PfHop: 25 µM nucleotide or inhibitor. The method, then:
An enzyme-linked immunosorbent assay (ELISA) was used to validate the effect of PES on the direct association of PfHsp70-1 and PfHop following a previously described protocol ([Mabate et al., 2018]). Briefly, ligand (5 μg/ml of PfHsp70-1) suspended in 5 mM sodium bicarbonate (NaHCO3) at pH 9.5 was noncovalently immobilized onto a 96 well plate overnight at 4 C. BSA (5 μg/ml) was used as a ligand for the negative control. The wells were washed with 150 µl TBST which contains (Tris-buffered saline- Tween (TBST; 20 mM Tris HCl, pH 7.5, 500 mM NaCl supplemented with 0.1% Tween 20) prior to blocking with 5% fat-free milk in TBST and incubated at 25 C for 1 h. The wells were washed using TBST for a total of 10 min. Varying concentrations (0–1,000 nM) of analyte PfHop were added to the wells and incubated for 2 h at 25 °C. To remove the unbound analyte, the plate was washed with 150 µl TBST three times before the addition of rabbit-raised α-PfHop antibody (1: 4,000) followed by incubation at 25°C for 1 h. Subsequently, the wells were washed with 150 µl TBST three times before the addition of 100 µl secondary HRP conjugated goat-raised α-rabbit antibody (1: 4,000) and incubated for 45 min at 25 °C. The substrate, 3,3’5,5’ –tetramethylbenzidine (TMB) (Bio Scientific, United States) was added into the wells and incubated for 2 min at 25 C. Color development was monitored by recording absorbance readings at 370 nm at 5 min time intervals for 30 min using a SpectraMax M3 Microplate reader (Molecular Devices, United States). To determine the effect of the inhibitor, the assay was conducted in the presence of 25 µM) of PES. […] Furthermore, the assay was repeated interchanging the ligand and analyte to validate data reproducibility. The generated data were analyzed taking into account the background signal generated by BSA which served as the control protein. The absorbance values obtained at the highest concentration of each analyte were averaged to represent maximum (100%) binding. Titration curves were then generated using GraphPad Prism 9.3.1 (GraphPad Software, United States). The relative binding affinities of PES under each experimental setting were normalized relative to the affinity estimated for assay conducted in the absence of nucleotide at the highest concentration of PfHop. Statistical analysis was conducted to establish significant differences at p < 0.05 using a student t-test.
A general note: An ELISA detects its analyte on a solid surface through an enzyme-linked reagent.

Assay [2] addresses T1, PfHop (Plasmodium falciparum, UniProt Q8ILC1).
T1 construct: His; made in house; host or cells: E. coli XL1 Blue
T1 sequence (Q8ILC1 1-564): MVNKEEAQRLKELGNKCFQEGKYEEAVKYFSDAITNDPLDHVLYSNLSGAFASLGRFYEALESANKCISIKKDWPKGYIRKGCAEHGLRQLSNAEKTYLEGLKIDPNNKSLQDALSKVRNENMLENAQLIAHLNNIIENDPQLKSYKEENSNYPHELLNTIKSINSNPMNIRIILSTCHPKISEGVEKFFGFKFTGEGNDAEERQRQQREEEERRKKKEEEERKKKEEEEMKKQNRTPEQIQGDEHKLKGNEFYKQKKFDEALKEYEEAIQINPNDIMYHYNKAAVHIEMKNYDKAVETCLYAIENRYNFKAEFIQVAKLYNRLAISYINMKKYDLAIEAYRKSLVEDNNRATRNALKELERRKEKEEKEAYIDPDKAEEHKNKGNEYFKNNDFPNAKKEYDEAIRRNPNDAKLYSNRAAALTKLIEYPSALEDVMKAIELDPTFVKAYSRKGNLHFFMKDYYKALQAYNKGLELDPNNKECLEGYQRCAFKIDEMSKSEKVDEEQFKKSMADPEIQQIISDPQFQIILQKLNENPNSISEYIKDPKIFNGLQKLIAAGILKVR
In words: SPR equilibrium binding to immobilized PfHop. Here is the method: The steady-state equilibrium binding kinetics for the inhibitors on either PfHsp70-1 or PfHop were investigated using BioNavis Navi 420A ILVES multi-parametric surface plasmon resonance (MP-SPR) system (BioNavis, Finland) following a previously described method ([Lebepe et al., 2020]; [Chakafana et al., 2021]). Briefly, filter-sterilized de-gassed PBS (4.3 mM Na2HPO4, 1.4 mM KH2PO4, 137 mM NaCl, 3 mM KCl, 0.005% (v/v) Tween 20, and 20 mM EDTA; pH 7.4) was used as running buffer for the assay. The ligand (0.1 μg/ml of PfHsp70-1/PfHop) was immobilized onto a carboxymethyl dextran (CMD 3-D) gold sensor chip through amine coupling. PES was injected (flow rate of 50 μl/min) as analyte at varying final concentrations (0, 1.25, 2.5, 5, 10, 20 nM). […] Steady-state equilibrium was achieved after allowing the interaction to occur for 8 min at 25°C, followed by dissociation for 4 min at 25°C, respectively. The data generated were analyzed using Data Viewer (BioNavis, Finland) after subtraction of baseline (signals generated on the chip surface without protein immobilized and buffer without inhibitor). The resultant sensorgrams were analyzed to determine the equilibrium binding affinities using Trace Drawer software version 1.8 (Ridgeview Instruments; Sweden).

Assay [3] relates to Asexual P. falciparum strain 3D7 parasites. In words: Parasite growth inhibition assay (SYBR Gold). The assay is classed as cell-based. Conditions: Plasmodium falciparum, 3D7, 96 h, read-out: IC50 parasite growth. The method, then:
Parasite growth without any drug present, which allowed the parasites to proliferate unrestricted, was used as negative drug control. SYBRTM Gold DNA stain (Invitrogen, ThermoFisher Scientific Inc., Germany) was used to measure the proliferation of the parasites compared to the controls as previously described ([[…] al., 2004]). Fluorescence was measured using a TECAN Spark® multimode microplate reader (Tecan Trading AG, Switzerland) and the data were analyzed using SigmaPlot, version 12 (Systat Software Inc., IL, United States).

Assay [4] has the same test system. Conditions: read-out: IC50 published potency, ref Smilkstein et al., 2004; cited from earlier work.
The target of assay [5] is T2, Plasmodium falciparum Hsp70-1 (Plasmodium falciparum, UniProt Q8IB24 1-677).
T2 construct: Plasmodium falciparum Hsp70-1 (PF3D7_0818900), cytosolic Hsp70; also called PfHsp70-1; PF3D7_0818900
In words: SPR; PfHsp70-1 immobilised as ligand; PfHop analyte 0-2000 nM, 25 C, PBS; with 25 uM ADP; bivalent fit model. Particulars: both partners purified. Background: In SPR one partner is held on a chip, and binding of the other changes the refractive index at the surface.

In assay [6] the target is T2, Plasmodium falciparum Hsp70-1. In words: SPR; ligand and analyte switched: PfHop immobilised, PfHsp70-1 analyte; with PES; bivalent fit model. Conditions: both partners purified.
Assay [7] has the same target. In words: SPR; ligand and analyte switched: PfHop immobilised, PfHsp70-1 analyte; with ATP; bivalent fit model. Conditions: both partners purified.
Assay [8] shares this target. The assay is described as follows: SPR; PfHsp70-1 immobilised as ligand; PfHop analyte 0-2000 nM, 20 ul/min, 25 C, PBS; no nucleotide or inhibitor (NN); bivalent fit model. Conditions: both partners purified.
Assay [9] has the same target. The assay is described as follows: SPR; PfHsp70-1 immobilised as ligand; PfHop analyte 0-2000 nM, 25 C, PBS; with 25 uM ATP; bivalent fit model. Particulars: both partners purified.
The target is the same in assay [10]. The assay is described as follows: SPR; ligand and analyte switched: PfHop immobilised, PfHsp70-1 analyte; with EGCG; bivalent fit model. Particulars: both partners purified.
The target is the same in assay [11]. The assay is described as follows: SPR; ligand and analyte switched: PfHop immobilised, PfHsp70-1 analyte; with ADP; bivalent fit model. Particulars: both partners purified.
For assay [12] the target is unchanged. In words: SPR; ligand and analyte switched: PfHop immobilised, PfHsp70-1 analyte; no nucleotide or inhibitor (NN); bivalent fit model. Conditions: both partners purified.
Assay [13] shares this target. In words: SPR; PfHsp70-1 immobilised as ligand; PfHop analyte 0-2000 nM, 25 C, PBS; with 25 uM EGCG; bivalent fit model. Conditions: both partners purified.
Assay [14] has the same target. The assay is described as follows: SPR; PfHsp70-1 immobilised as ligand; PfHop analyte 0-2000 nM, 25 C, PBS; with 25 uM PES; bivalent fit model. Conditions: both partners purified.

For orientation: IC50 means the midpoint of a concentration-inhibition curve. Usually koff stands for a measure of how fast the partners let go of each other. Lower therefore signals slow dissociation. What is called kon is the second-order rate constant of association.

Where two headings read alike, the source gives them in different places.

For the molecule `Nc1ncnc2c1ncn2[C@@H]1O[C@H](COP(=O)(O)OP(=O)(O)O)[C@@H](O)[C@H]1O` [ADP], the “Effect on association of PfHsp70-1 and PfHop” value in assay [1] was “promoted the association”.
Consider `Nc1ncnc2c1ncn2[C@@H]1O[C@H](COP(=O)(O)OP(=O)(O)OP(=O)(O)O)[C@@H](O)[C@H]1O` [ATP], for which, in assay [1], the “Effect on association of PfHsp70-1 and PfHop” value was “abrogated the association”. For the same molecule, the Kd in assay [2] was found to be 861 ± 10 nM.
On to `O=C(O[C@@H]1Cc2c(O)cc(O)cc2O[C@@H]1c1cc(O)c(O)c(O)c1)c1cc(O)c(O)c(O)c1` [EGCG, (−)-Epigallocatechin-3-gallate], for which the IC50 was 14.6 ± 1.8 nM in [1] (ligand PfHop, analyte PfHsp70-1) and 13.9 ± 1.2 nM in assay [1] (ligand PfHsp70-1, analyte PfHop).
As to `CCN(CC)CCCC(C)Nc1ccnc2cc(Cl)ccc12` (stereo not shown) [chloroquine], the IC50 is 29.1 ± 1.3 nM in assay [3] and 21 ± 1.7 nM in [4].

B1: Plasmodium falciparum Hsp90-Hsp70 organizing protein (natural protein, UniProt Q8ILC1 1-564, looked up)
chain: T1 sequence (Q8ILC1 1-564)
notes: Plasmodium falciparum Hsp90-Hsp70 organizing protein, PfHop (PF3D7_1434300); also called PfHop; PF3D7_1434300
On to B1, for which the Kd came out at 3.08 nM in [5]; 232 nM in assay [6]; 80.9 nM in assay [7]; 4.24 nM in assay [8]; 79.8 nM in assay [9]; 1360 nM in assay [10]. Further, the Kd in assay [11] came out at 3.1 nM; in [12], 4.49 nM; in [13] it was 20700 nM; in [14], 214 nM. The koff was 0.00308 s⁻¹ in assay [5]; 0.00811 s⁻¹ in [6]; 0.0215 s⁻¹ in assay [7]; 0.00325 s⁻¹ in assay [8]; 0.0207 s⁻¹ in assay [9]; 0.00914 s⁻¹ in assay [10]. For the same molecule, the koff in [11] came to 0.025 s⁻¹; in assay [12], 0.0341 s⁻¹; in assay [13], 0.13 s⁻¹; in [14], 0.0266 s⁻¹. Also, the kon was found to be 781000 M⁻¹ s⁻¹ in assay [5]; 35000 M⁻¹ s⁻¹ in [6]; 266000 M⁻¹ s⁻¹ in assay [7]; 767000 M⁻¹ s⁻¹ in assay [8]; 259000 M⁻¹ s⁻¹ in assay [9]; 6710 M⁻¹ s⁻¹ in assay [10]. Also, the kon in [11] turned out to be 8.07e+06 M⁻¹ s⁻¹; in assay [12], 7.6e+06 M⁻¹ s⁻¹; in assay [13] it was 6310 M⁻¹ s⁻¹; in assay [14] it was 125000 M⁻¹ s⁻¹.

The values are drawn from PMC9513230, “Inhibition of Plasmodium falciparum Hsp70-Hop partnership by 2-phenylthynesulfonamide” (Frontiers in Molecular Biosciences, 2022).
